{"source": "paper PMC8758478", "key": {"[1]": {"biological_target": "recombinant α-secretase N-terminal soluble form of APP695 (sAPPα^695) (human)", "experiment": "other fluorescence titration; native tryptophan fluorescence, excitation 295 nm, change of intensity at 340 nm against Lf concentration, fitted to two independent sites on an acceptor; 96-well quartz microplate"}, "[2]": {"biological_target": "recombinant α-secretase N-terminal soluble form of APP695 (sAPPα^695) (human)", "experiment": "AUC; sedimentation velocity, 50,000 rpm, absorbance at 280 nm, c(S) model (Sedfit); APP 2.5 μM with holo-Lf 2.5, 3.75, 5 μM or apo-Lf 2.5, 12.5 μM; weight average sedimentation coefficients fitted to a two-site binding model"}}, "data": [{"substance": "holo-lactoferrin (iron-bound form of Lf) (natural protein)", "values": [{"measurement": "Kd1:1 (first site, two-site model)", "setting": "[1]", "result": 690, "unit": "nM"}, {"measurement": "Kd1:2 (second site, two-site model)", "setting": "[1]", "result": 9.4, "unit": "µM"}, {"measurement": "Kd1:1 (first site, two-site binding model)", "setting": "[2]", "result": 620, "unit": "nM"}, {"measurement": "Kd1:2 (second site, two-site binding model)", "setting": "[2]", "result": 8.2, "unit": "µM"}, {"measurement": "stoichiometry N (Lf molecules per sAPPα695 molecule)", "setting": "[2]", "result": 2}]}]}
